In US20220288202A1, “Use of Calcineurin Inhibitor Free CTLA4-IG + Anti-IL6/IL6R For Long Term Immunosuppression in Solid Organ Transplant Recipients” (Cedars-Sinai Medical Center, priority 2019, published 2022):
Where “and” joins values, the source holds several entries; their conditions need not be identical. Identical values can stand only once. Entries after “also recorded” stand apart in the source; their conditions may differ.

What was measured:
[1] = system: highly HLA sensitized kidney transplant recipients; test: Experience with anti-IL-6/IL-6R+CTLA4-Ig, CNI-free and MMF-free, in human kidney transplant recipients (case courses); assay type: in vivo
Excerpt: Four patients were maintained on CNI-free and MMF-free immunosuppression on anti-IL-6R or anti-IL-6+CTLA4-Ig for a prolonged time period (years) after transplant. These patients received two infusions per month as their standard immunosuppression.

[2] = system: HLA antibodies (class I and class II); test: clazakizumab desensitization trial (NCT03380962): HLA antibody levels pre- and post-clazakizumab; assay type: in vivo, human
Description: (§1) Patients entered into the afore-described clazakizumab desensitization trial (NCT03380962) where 75% were in the 99-100% Panel Reactive Antibody (PRA) range received clazakizumab 25 mg subcutaneously monthly for up to 6 months. If transplanted, they received continued clazakizumab for up to 6 M post-transplant. This group of patients are exceedingly difficult to transplant due to high likelihood of severe antibody mediated rejection and graft loss post-transplant. Antibody levels, pre-post-transplant and Treg cells were monitored at concomitant time points.
(§2) As part of a phase I/II trial of clazakizumab for desensitization, HLA sensitized patients received anti-IL-6, 25 mg SC monthly×6 doses with monitoring of HLA antibody levels and Tregs. Patients were treated pre- and post-transplant with clazakizumab. Transplanted patients received monthly clazakizumab 25 mg subcutaneously starting 5-7 days post-transplant for 12 months. Tregs were determined by flow cytometry as CD4^+, CD25^+, CD127^dim, FoxP3^+ cell populations in CD4^+ cells. Determinations were made at baseline, at transplantation and day 180 post-transplant.

[3] = in vivo; cited from earlier work
[4] = system: donor specific antibodies; test: clazakizumab desensitization trial: donor specific antibodies pre- and post-transplant; assay type: in vivo, human
Description: as §1
Transplant patients who were treated as described in the previous example were also monitored to assess the effect of clazakizumab on donor specific antibodies. Particularly, levels of donor specific antibodies were monitored in transplant patient samples pre- and post-transplant.

monkeys = conditions: monkey, in vivo; cited from earlier work
[5] = system: patients/subjects taking clazakizumab; conditions: human, in vivo, cited from earlier work
[6] = system: highly HLA sensitized patients (HLAi kidney transplant); test: clazakizumab desensitization trial: transplantation, rejection episodes and graft loss; assay type: in vivo, human; conditions: for highly sensitized patients able to receive transplants: after clazakizumab desensitization
Description: as §1, §2

[7] = system: Treg cells (CD4+, CD25+, CD127dim, FoxP3+); test: Tregs by flow cytometry in clazakizumab-treated HLA sensitized patients; assay type: in vivo, human; conditions: for Mean Treg value: baseline 3.2+1.09%, in CD4+ cells
Description: as §2

[8] = post-transplant on clazakizumab

C=CC[C@@H]1/C=C(\C)C[C@H](C)C[C@H](OC)[C@H]2O[C@@](O)(C(=O)C(=O)N3CCCC[C@H]3C(=O)O[C@H](/C(C)=C/[C@@H]3CC[C@@H](O)[C@H](OC)C3)[C@H](C)[C@@H](O)CC1=O)[C@H](C)C[C@@H]2OC [tacrolimus]
biopsy toxicity finding ([1]; patient, three years after anti-IL-6R start, tapered off): toxicity seen on a biopsy

tocilizumab
duration of stable course with declining SCr ([1]; person on CTLA4-Ig + tocilizumab monthly): over 1.5 years | SCr course ([1]; person, chronic ABMR, on CTLA4-Ig, converted from CELLCEPT to tocilizumab monthly): stable with declining SCr

B1: clazakizumab (antibody, chains of the INN, looked up, V domains shown)
VH: EVQLVESGGGLVQPGGSLRLSCAASGFSLSNYYVTWVRQAPGKGLEWVGIIYGSDETAYATSAIGRFTISRDNSKNTLYLQMNSLRAEDTAVYYCARDDSSDWDAKFNLWGQGTLVTVSS
VL: AIQMTQSPSSLSASVGDRVTITCQASQSINNELSWYQQKPGKAPKLLIYRASTLASGVPSRFSGSGSGTDFTLTISSLQPDDFATYYCQQGYSLRNIDNAFGGGTKVEIK
notes: Genetically engineered humanized anti-IL-6 mAb
Mean MFI for HLA cl ([2]; post claza, pre-desensitization 13062±3123, p=0.05, nine transplanted patients): 8585±4597 MFI | Mean MFI for HLA cll ([2]; post claza, pre-desensitization 13519±2966, p=0.03, nine transplanted patients): 8344±4836 MFI | impact on HLA antibodies (class I and class II) ([2]; pre- vs post-clazakizumab 25 mg SC monthly): significant reductions; also recorded: reduced | elimination half-life (t1/2) [3]: about 30 days | donor-specific antibodies present prior to transplant ([4]; at transplant): significantly reduced | DSA status of DSA+ patients ([4]; by day 180 post-transplant): negative | donor-specific antibodies present prior to transplant ([4]; post-transplant): disappeared | pathogenic antibodies ([4]; up to 3 months post-transplant): significant reduction | monkeys with retained placentas in which excessive uterine hemorrhage led to moribund status (monkeys): 3 of the 5 | infusion reactions ([5]; iv): no infusion reactions | severity of injection site reactions ([5]; sc): mild or moderate | demyelinating disorder events [5]: rarely reported | malignancies [5]: no imbalance of malignancies | outcome of pregnancies in subjects taking clazakizumab [5]: one spontaneous abortion | reactivation of viral and other serious infections (e.g. EBV or TB) [5]: rarely reported | highly sensitized patients able to receive transplants [6]: all of these patients and 9/10 | highly sensitized patients able to receive transplants ([6]; listed as claza): 10 patients | grafts lost due to rejection [6, 8]: no grafts were lost; also recorded: no graft loss | transplant patients with rejection episodes [6, 8]: Two of the ten and 2 of 10 | Mean Treg value ([7]; at transplant, p=NS): 3.5+1.75% | change in Treg cells ([7]; day 180 post-transplant, still on anti-IL-6 therapy): significant increase; also recorded: dramatic increase | Mean Treg value ([7]; day 180 post-transplant, p=0.008): 12.6+9.3%
